The EC50 is the concentration that produces a half-maximal response. A word on the Kd: it is a measure of binding affinity in units of concentration. Usually koff stands for the first-order rate constant of dissociation. The term kon denotes the second-order rate constant of association.

Read-outs that look alike come from different tables or passages of the source.

Consider seven molecules from patent publication US20180362652A1 (Biogen, published 2018).

For assay [1], the target named is T1, monomeric huBDCA2 ectodomain (human, UniProt Q8WTT0 45-213).
T1 construct: Prepared by proteolytic cleavage of the purified muIgG2a Fc-huBDCA2 fusion protein (pEAG2423); also called human BDCA2 ectodomain; human BDCA2 ECD
T1 sequence: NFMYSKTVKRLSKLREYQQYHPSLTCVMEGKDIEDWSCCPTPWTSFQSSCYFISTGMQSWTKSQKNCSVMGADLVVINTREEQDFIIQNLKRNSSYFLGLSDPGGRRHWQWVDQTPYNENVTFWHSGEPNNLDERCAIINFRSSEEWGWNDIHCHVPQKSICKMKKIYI
Nature of the assay: Octet, mAb on anti-human Fc tips, monomeric huBDCA2 in solution. How it is done: Site-directed mutagenesis was performed using Agilent's QuikChange II mutagenesis kit following the manufacturer's recommended protocol. […] Mutated plasmids were identified by screening for the introduced restriction site changes. The full-length light chain cDNA sequences in the resultant plasmids were confirmed by DNA sequencing. […] Conditioned medium was harvested at 2 days post-transfection. […] Antibodies from conditioned medium from transiently transfected cells were bound to anti-human Fc tips, then monomeric huBDCA2 was flowed over the Octet tips, to examine binding and dissociation.
(In BLI a coated tip is dipped into the sample, and binding shifts an interference pattern.)

The target of assay [2] is T2, human BDCA2 (full-length, cell surface) (human, UniProt Q8WTT0 1-213).
T2 construct: also called huBDCA2; surface human BDCA2
T2 sequence: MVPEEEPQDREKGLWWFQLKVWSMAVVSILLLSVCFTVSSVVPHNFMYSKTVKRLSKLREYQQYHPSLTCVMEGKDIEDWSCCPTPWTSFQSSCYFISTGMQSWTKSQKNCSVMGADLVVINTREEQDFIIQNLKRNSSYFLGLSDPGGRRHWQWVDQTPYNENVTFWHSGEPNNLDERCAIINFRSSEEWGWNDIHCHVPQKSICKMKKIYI
The assay can be described thus: direct binding FACS on surface BDCA2, conditioned medium.

The target in assay [3] is T3, cynomolgus monkey BDCA2 (full-length, cell surface, E73 SNP form) (cynomolgus monkey, UniProt Q8WTT0 1-213 (human entry)).
T3 construct: also called cyno BDCA2; surface cynomolgus monkey BDCA2
T3 chain: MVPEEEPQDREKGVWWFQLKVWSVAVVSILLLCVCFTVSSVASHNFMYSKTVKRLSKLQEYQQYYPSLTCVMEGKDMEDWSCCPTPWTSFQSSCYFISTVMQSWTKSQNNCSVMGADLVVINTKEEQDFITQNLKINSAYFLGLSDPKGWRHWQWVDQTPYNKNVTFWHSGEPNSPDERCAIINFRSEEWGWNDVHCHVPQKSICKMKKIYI
Nature of the assay: direct binding FACS, conditioned medium on CHO cells co-expressing cynomolgus BDCA2 and FcεRIγ; column C (midpoint) of the printed 4-P fit, X in ng/ml; A 3.13, B 0.874, D 71.9, R^2 0.998. The method, then:
(§1) Conditioned medium was assayed by direct binding FACS on stably transfected DG44 CHO cells co-expressing full-length BDCA2 and FcεRIγ cDNAs (human or cynomolgus monkey), (relevant expression vectors are human BDCA2/FcεRIγ: pEAG2456, cyno BDCA2/FcεRIγ: pEAG2668).

Assay [4] deals with T2, human BDCA2 (full-length, cell surface). The assay can be described thus: direct binding FACS, conditioned medium on CHO cells co-expressing human BDCA2 and FcεRIγ; column C (midpoint) of the printed 4-P fit, X in ng/ml; A 8.32, B 1, D 102, R^2 0.999. How it is done:
as §1

For assay [5], the target named is T1, monomeric huBDCA2 ectodomain. Nature of the assay: Octet, mAb from conditioned medium on anti-human Fc tips, monomeric huBDCA2 in solution. How it is done: (§2) Backmutation to the unpaired cysteine, i.e., S95C, was constructed by site-directed mutagenesis producing plasmid pYL749. Variants S95T, S95A, and S95V were constructed by site-directed mutagenesis producing plasmids pYL750, pYL751, and pYL752, respectively. The full-length light chain cDNA sequences in the resultant plasmids were confirmed by DNA sequencing. […] Conditioned medium was harvested at 2 days post-transfection. […] Conditioned medium containing the C95 variant mAbs was assayed by Octet for binding to human BDCA2 ectodomain. Antibodies from conditioned medium from transiently transfected cells were bound to anti-human Fc tips, then monomeric huBDCA2 was flowed over the Octet tips, to examine binding and dissociation.

Assay [6] shares this target. The assay is described as above. The method, then: The monomeric huBDCA2 ectodomain was prepared by proteolytic cleavage from the purified muIgG2a Fc-huBDCA2 fusion protein (relevant plasmid: pEAG2423). Antibodies from conditioned medium from transiently transfected cells were bound to anti-human Fc tips, and then monomeric huBDCA2 was flowed over the Octet tips, to examine binding and dissociation.
The source holds these as a separate data set.

The target of assay [7] is T3, cynomolgus monkey BDCA2 (full-length, …). Nature of the assay: direct binding FACS, conditioned medium on CHO cells co-expressing cynomolgus BDCA2 and FcεRIγ; column C (midpoint) of the printed 4-P fit, X in ng/ml; A 4.01, B 1.09, D 68.9, R^2 0.998. How it is done:
as §1

In assay [8] the target is T2, human BDCA2 (full-length, cell surface). The assay can be described thus: direct binding FACS, conditioned medium on CHO cells co-expressing human BDCA2 and FcεRIγ; column C (midpoint) of the printed 4-P fit, X in ng/ml; A 6.16, B 0.839, D 115, R^2 0.998. How it is done: as §1
Assay [9] has the same target. Nature of the assay: direct binding FACS, conditioned medium on CHO cells co-expressing human BDCA2 and FcεRIγ; column C (midpoint) of the printed 4-P fit, X in ng/ml; A 5.67, B 0.857, D 96.6, R^2 0.999. The method, then:
as §1

In assay [10] the target is T3, cynomolgus monkey BDCA2 (full-length, …). Nature of the assay: direct binding FACS, conditioned medium on CHO cells co-expressing cynomolgus BDCA2 and FcεRIγ; column C (midpoint) of the printed 4-P fit, X in ng/ml; A 2.43, B 0.789, D 70.7, R^2 0.999. The method, then:
as §1

Assay [11] concerns the target T1, monomeric huBDCA2 ectodomain. The assay can be described thus: Octet, monomeric huBDCA2. The method, then:
as §2

Assay [12] has as its target T3, cynomolgus monkey BDCA2 (full-length, …). The assay can be described thus: direct binding FACS, conditioned medium on CHO cells co-expressing cynomolgus BDCA2 and FcεRIγ; column C (midpoint) of the printed 4-P fit, X in ng/ml; A 1.62, B 0.79, D 41.8, R^2 1; the fit is extrapolated: the highest point drawn is at about 4000 ng/ml with MFI about 16, no plateau. How it is done: as §1

The target in assay [13] is T2, human BDCA2 (full-length, cell surface). Nature of the assay: direct binding FACS, conditioned medium on CHO cells co-expressing human BDCA2 and FcεRIγ; column C (midpoint) of the printed 4-P fit, X in ng/ml; A 3.85, B 0.622, D 97.2, R^2 0.999. How it is done: as §1

B1: ch24F4 C95S variant (antibody, human IgG1, kappa, V domains shown)
VH: DVKLVESGGGLVKPGGSLKLSCAASGFTFSTYTMSWVRQTPEKRLEWVATISPGDSFGYYYPDSVQGRFTISRDNAKNTLFLQMSSLKSEDTAMYYCTRDIYYNYGAWFAYWGQGTLVTVSA
VL: DIVLTQSPASLAVSLGQRATISCKASQSVDYDGDSYMNWYQQKPGQPPKLLIYAASTLESGVPARFSGSGSGTDFTLNIHPVEEEDAATYYCQQSNEDPRTFGGGTKLEIKR
notes: pYL672 with pEAG2678; conditioned medium of 293E cells
On to B1, for which the binding result in assay [1] and in [2] was “binds” throughout.

B2: ch24F4 C95T variant (antibody, human IgG1, kappa, V domains shown)
VH: DVKLVESGGGLVKPGGSLKLSCAASGFTFSTYTMSWVRQTPEKRLEWVATISPGDSFGYYYPDSVQGRFTISRDNAKNTLFLQMSSLKSEDTAMYYCTRDIYYNYGAWFAYWGQGTLVTVSA
VL: DIVLTQSPASLAVSLGQRATISCKASQSVDYDGDSYMNWYQQKPGQPPKLLIYAASTLESGVPARFSGSGSGTDFTLNIHPVEEEDAATYYCQQTNEDPRTFGGGTKLEIKR
notes: pYL672 with pEAG2679; conditioned medium of 293E cells
B2: the binding result in assay [1] and in assay [2] was “binds” each time.

B3: hu24F4 H4/L1 (C95S) (antibody, V domains shown)
VH: DVQLVESGGGLVKPGGSLRLSCAASGFTFSTYTMSWVRQAPGKGLEWVATISPGDSFGYYYPDSVQGRFTISRDNAKNSLYLQMNSLRAEDTAVYYCTRDIYYNYGAWFAYWGQGTLVTVSS
VL: DIQLTQSPSSLSASVGDRVTITCKASQSVDYDGDSYMNWYQQKPGKAPKLLIYAASTLESGVPSRFSGSGSGTDFTLTISSLQPEDFATYYCQQSNEDPRTFGQGTKVEIK
notes: Human IgG1/kappa; also called 24F4-H4/L1 (YL740/YL746); 24F4S
The molecule B3 returned a concentration for a half-maximal effect (EC50) in [3] of 0.21 µg/mL. In assay [4], the EC50 came out at 0.2 µg/mL. In [5], this molecule gave a Kd of 0.548 nM, a koff of 0.000398 s⁻¹ and a kon of 727000 M⁻¹ s⁻¹. Besides, in assay [6], the affinity, expressed as Kd, was 0.744 nM; the koff was 0.000408 s⁻¹; the kon came out at 549000 M⁻¹ s⁻¹.

B4: hu24F4 H5/L1 (antibody, V domains shown)
VH: DVQLVQSGGGLVKPGGSLRLSCAASGFTFSTYTMSWVRQAPGKGLEWVATISPGDSFGYYYPDSVQGRFTISRDNAKNSLYLQMNRLRAEDTAVYYCTRDIYYNYGAWFAYWGRGTLVTVSS
VL: DIQLTQSPSSLSASVGDRVTITCKASQSVDYDGDSYMNWYQQKPGKAPKLLIYAASTLESGVPSRFSGSGSGTDFTLTISSLQPEDFATYYCQQSNEDPRTFGQGTKVEIK
notes: Humanized variant, human IgG1/kappa, conditioned medium of 293E cells; also called H5 series of hu24F4
B4: the EC50 in assay [7] worked out at 0.228 µg/mL; in assay [8], 0.309 µg/mL.

B5: hu24F4 H6/L1 (antibody, V domains shown)
VH: DVQLVESGGGLVKPGGSLRLSCAASGFTFSTYTMSWVRQAPGKGLEWVATISGGNNYGYSYPDSVKGRFTISRDNAKNSLYLQMNSLRAEDTAVYYCTRDIYYNYGAWFAYWGQGTLVTVSS
VL: DIQLTQSPSSLSASVGDRVTITCKASQSVDYDGDSYMNWYQQKPGKAPKLLIYAASTLESGVPSRFSGSGSGTDFTLTISSLQPEDFATYYCQQSNEDPRTFGQGTKVEIK
notes: Humanized variant, human IgG1/kappa, conditioned medium of 293E cells; also called H6 series of hu24F4
Take B5: the EC50 stood at 0.359 µg/mL in [9] and 0.501 µg/mL in assay [10].

B6: hu24F4 H5/L1 C95T (antibody, human IgG1, V domains shown)
VH: DVQLVQSGGGLVKPGGSLRLSCAASGFTFSTYTMSWVRQAPGKGLEWVATISPGDSFGYYYPDSVQGRFTISRDNAKNSLYLQMNRLRAEDTAVYYCTRDIYYNYGAWFAYWGRGTLVTVSS
VL: DIQLTQSPSSLSASVGDRVTITCKASQSVDYDGDSYMNWYQQKPGKAPKLLIYAASTLESGVPSRFSGSGSGTDFTLTISSLQPEDFATYYCQQTNEDPRTFGQGTKVEIK
notes: Heavy chain pYL747 with light chain pYL750; human IgG1/kappa; also called H5/L1 C95T variant
With B6, the binding result in [11] is listed as “binds”.

B7: hu24F4 H3/L1 (antibody, V domains shown)
VH: EVQLVESGGGLVKPGGSLRLSCAASGFTFSTYTMSWVRQAPGKGLEWVSTISPGDSFGYYYPDSVQGRFTISRDNAKNSLYLQMNSLRAEDTAVYYCARDIYYNYGAWFAYWGQGTLVTVSS
VL: DIQLTQSPSSLSASVGDRVTITCKASQSVDYDGDSYMNWYQQKPGKAPKLLIYAASTLESGVPSRFSGSGSGTDFTLTISSLQPEDFATYYCQQSNEDPRTFGQGTKVEIK
notes: Humanized variant, human IgG1/kappa, conditioned medium of 293E cells; also called H3 series of hu24F4
Take B7: in assay [12], the EC50 was 7.67 µg/mL. The molecule further returned an EC50 in [13] of 0.984 µg/mL. In assay [6], this molecule returned a Kd of 13 nM, a koff of 0.00586 s⁻¹ and a kon of 452000 M⁻¹ s⁻¹.
